Laboratory results taken from US20170292963A1.

Target: Mouse BACE1 (beta amyloid precursor protein cleavage enzyme 1), native protein in mouse brain lysate or neurons (mouse) (UniProt P56818)
Assay: cell-based or functional assay

Sequence of Mouse BACE1 (beta amyloid precursor protein cleavage enzyme 1), native protein in mouse brain lysate or neurons (mouse) (P56818 46-501 limits assumed): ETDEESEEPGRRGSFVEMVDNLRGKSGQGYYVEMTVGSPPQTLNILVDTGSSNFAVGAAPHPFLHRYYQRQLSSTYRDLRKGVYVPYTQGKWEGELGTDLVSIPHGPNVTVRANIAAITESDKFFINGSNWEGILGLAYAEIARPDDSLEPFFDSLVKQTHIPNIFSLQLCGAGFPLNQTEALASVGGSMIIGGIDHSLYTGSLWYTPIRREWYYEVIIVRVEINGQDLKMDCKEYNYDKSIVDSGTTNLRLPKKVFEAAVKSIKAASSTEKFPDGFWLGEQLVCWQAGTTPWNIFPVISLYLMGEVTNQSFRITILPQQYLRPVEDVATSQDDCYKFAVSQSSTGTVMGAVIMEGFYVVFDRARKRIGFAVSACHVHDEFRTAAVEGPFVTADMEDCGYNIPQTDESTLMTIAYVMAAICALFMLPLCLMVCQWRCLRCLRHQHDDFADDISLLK

BACE1 internalized within 12 min at 37 C as percent of surface expression, NPTX1-/- neurons (surface biotinylation assay): 95%
BACE1 internalized within 12 min at 37 C as percent of surface expression, WT neurons (surface biotinylation assay): 37.5%
hAβ40 in media of hAPP/NPTX1-/- neurons compared to hAPP neurons (ELISA): 2 fold
Substance: Mouse NPTX1 (Neuronal Pentraxin 1), native protein in mouse brain lysate or neurons (from UniProt Q62443 23-432)
